Experimental data reported in the supplement of paper PMC10065799, “High-throughput profiling of sequence recognition by tyrosine kinases and SH2 domains using bacterial peptide display” (eLife, 2023).

How the values were obtained:
c-Src SH2 = test: SH2 binding enrichment of the phosphorylated peptide, bacterial display (enrichment ratio); higher = better substrate or ligand; peptides without Tyr show the background
SHP2-C SH2 = test: as above
Grb2 SH2 = Grb2 SH2 (UniProt P62993); test: as above
FGFR1 = FGFR1 (UniProt P11362); test: phosphorylation enrichment, bacterial display (enrichment ratio); higher = better substrate or ligand; peptides without Tyr show the background
Jak2 = Jak2 (UniProt O60674); test: as above
Sequence of Jak2 (O60674 whole entry, looked up): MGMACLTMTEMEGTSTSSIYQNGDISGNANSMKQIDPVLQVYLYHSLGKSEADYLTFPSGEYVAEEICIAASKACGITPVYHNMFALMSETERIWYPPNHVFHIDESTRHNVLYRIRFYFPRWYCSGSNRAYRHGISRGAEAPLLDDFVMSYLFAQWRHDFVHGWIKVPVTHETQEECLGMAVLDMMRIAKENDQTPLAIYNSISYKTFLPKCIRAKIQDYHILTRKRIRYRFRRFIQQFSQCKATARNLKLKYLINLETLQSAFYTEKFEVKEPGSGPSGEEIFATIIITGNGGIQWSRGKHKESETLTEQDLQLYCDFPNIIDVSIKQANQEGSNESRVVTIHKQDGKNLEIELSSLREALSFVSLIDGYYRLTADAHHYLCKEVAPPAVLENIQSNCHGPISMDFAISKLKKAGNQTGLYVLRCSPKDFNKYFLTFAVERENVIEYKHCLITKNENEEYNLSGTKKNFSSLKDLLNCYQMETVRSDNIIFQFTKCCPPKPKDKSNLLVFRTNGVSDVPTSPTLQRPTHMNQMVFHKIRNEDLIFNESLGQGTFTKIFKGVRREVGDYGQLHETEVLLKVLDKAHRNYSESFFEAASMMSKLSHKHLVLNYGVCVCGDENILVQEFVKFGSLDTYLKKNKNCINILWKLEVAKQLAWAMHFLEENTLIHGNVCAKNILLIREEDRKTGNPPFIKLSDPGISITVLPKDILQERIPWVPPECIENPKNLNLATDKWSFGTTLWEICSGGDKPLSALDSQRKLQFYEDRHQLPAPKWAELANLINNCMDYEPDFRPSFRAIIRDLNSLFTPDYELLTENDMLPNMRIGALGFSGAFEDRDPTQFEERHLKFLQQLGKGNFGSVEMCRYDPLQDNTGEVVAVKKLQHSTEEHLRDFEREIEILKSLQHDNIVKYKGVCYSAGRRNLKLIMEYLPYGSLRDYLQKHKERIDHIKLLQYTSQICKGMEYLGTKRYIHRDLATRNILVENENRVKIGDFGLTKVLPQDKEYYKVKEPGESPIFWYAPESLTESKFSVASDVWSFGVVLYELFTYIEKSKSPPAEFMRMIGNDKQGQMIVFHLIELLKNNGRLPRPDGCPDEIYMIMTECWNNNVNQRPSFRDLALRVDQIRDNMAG

EPHB2 = EPHB2 (UniProt P29323); test: as above
c-Abl (mouse) = test: as above
MERTK = MERTK (UniProt Q12866); test: as above
Sequence of MERTK (Q12866 whole entry, looked up): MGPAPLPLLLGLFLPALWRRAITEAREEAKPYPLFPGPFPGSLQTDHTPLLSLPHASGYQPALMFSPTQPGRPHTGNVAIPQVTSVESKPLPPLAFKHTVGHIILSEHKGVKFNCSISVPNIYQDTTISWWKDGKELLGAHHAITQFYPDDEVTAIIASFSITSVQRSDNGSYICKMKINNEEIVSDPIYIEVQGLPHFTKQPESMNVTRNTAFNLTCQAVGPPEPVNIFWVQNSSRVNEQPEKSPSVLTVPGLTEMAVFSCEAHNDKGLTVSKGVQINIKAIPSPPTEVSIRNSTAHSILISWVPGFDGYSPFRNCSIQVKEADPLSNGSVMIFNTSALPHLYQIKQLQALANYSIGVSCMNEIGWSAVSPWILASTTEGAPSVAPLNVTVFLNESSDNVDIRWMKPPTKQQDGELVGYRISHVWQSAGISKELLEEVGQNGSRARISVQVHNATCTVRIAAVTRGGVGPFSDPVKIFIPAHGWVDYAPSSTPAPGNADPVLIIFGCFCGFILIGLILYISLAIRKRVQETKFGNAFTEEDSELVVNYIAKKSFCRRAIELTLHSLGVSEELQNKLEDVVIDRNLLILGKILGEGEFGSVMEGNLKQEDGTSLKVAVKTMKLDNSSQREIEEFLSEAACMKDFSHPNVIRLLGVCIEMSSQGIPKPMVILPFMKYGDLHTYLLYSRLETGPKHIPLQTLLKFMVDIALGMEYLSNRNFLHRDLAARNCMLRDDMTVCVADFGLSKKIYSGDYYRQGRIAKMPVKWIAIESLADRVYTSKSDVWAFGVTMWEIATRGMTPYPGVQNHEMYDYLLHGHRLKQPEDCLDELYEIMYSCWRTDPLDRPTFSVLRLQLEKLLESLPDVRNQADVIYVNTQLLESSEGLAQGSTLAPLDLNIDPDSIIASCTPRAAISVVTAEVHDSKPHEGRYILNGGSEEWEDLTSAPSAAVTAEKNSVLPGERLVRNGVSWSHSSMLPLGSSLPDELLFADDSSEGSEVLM

FGFR3 = FGFR3 (UniProt P22607); test: as above
AncSZ = test: as above
Hck = Hck (UniProt P08631); test: as above
Sequence of Hck (P08631 whole entry, looked up): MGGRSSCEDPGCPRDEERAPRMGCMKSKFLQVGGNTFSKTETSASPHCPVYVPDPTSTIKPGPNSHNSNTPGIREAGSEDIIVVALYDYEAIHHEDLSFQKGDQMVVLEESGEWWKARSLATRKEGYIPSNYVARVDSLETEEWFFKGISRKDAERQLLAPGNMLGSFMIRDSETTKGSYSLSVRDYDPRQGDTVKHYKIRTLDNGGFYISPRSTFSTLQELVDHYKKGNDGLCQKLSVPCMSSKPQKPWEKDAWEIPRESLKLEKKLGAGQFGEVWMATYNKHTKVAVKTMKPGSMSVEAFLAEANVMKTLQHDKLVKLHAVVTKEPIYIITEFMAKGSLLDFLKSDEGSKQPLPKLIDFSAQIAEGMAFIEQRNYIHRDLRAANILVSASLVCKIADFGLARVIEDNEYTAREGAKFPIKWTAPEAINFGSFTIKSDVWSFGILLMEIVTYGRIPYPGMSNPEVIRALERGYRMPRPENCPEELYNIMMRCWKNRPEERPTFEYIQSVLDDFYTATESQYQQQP

Fes = Fes (UniProt P07332); test: as above
Sequence of Fes (P07332 whole entry, looked up): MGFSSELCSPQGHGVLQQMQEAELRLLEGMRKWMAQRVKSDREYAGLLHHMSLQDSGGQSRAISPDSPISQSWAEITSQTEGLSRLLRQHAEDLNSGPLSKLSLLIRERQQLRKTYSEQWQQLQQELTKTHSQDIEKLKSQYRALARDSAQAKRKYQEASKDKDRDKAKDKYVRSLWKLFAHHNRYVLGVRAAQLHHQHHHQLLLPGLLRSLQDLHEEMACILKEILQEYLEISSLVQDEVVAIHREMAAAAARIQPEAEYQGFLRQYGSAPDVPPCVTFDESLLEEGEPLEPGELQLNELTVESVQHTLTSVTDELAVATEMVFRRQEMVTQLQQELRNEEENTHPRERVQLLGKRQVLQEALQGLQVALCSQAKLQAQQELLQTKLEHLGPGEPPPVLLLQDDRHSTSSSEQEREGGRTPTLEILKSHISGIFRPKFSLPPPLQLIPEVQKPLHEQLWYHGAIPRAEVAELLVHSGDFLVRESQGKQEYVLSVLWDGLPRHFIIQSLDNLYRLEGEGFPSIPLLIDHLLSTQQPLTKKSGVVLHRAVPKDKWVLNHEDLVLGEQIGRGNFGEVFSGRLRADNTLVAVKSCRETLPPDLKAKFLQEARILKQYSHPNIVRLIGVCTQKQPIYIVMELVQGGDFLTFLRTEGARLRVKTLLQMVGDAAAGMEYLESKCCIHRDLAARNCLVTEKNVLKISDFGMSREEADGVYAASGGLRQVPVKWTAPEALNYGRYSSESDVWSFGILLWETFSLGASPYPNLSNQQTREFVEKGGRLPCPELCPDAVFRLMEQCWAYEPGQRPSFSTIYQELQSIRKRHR

EPHB1 = EPHB1 (UniProt P54762); test: as above
Sequence of EPHB1 (P54762 whole entry, looked up): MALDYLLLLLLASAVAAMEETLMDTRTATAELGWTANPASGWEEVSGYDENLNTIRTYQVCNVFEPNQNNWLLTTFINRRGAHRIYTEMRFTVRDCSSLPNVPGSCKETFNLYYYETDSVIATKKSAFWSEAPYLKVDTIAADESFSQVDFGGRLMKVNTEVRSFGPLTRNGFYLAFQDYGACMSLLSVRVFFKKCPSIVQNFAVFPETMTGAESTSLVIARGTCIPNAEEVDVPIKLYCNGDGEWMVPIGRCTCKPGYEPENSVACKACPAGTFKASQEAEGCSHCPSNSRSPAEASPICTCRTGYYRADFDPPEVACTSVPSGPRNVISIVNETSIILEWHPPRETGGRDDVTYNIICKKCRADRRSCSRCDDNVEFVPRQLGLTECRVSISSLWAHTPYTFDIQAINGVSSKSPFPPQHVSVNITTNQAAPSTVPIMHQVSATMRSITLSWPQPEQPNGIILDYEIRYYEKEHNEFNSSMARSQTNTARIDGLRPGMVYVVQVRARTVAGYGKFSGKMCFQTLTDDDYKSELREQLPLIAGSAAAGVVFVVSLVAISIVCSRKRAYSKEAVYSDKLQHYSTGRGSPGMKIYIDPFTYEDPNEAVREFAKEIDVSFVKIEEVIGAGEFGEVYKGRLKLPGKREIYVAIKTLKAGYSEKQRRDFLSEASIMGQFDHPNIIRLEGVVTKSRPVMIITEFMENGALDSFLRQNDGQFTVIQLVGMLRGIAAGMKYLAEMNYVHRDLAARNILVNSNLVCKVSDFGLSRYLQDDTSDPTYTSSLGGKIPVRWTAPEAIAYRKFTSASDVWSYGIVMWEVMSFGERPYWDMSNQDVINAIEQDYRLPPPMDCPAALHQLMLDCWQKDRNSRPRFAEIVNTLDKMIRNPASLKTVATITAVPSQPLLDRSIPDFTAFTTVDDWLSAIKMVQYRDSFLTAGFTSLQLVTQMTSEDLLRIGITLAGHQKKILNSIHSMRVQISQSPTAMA

Fyn = Fyn (UniProt P06241); test: as above
Sequence of Fyn (P06241 whole entry, looked up): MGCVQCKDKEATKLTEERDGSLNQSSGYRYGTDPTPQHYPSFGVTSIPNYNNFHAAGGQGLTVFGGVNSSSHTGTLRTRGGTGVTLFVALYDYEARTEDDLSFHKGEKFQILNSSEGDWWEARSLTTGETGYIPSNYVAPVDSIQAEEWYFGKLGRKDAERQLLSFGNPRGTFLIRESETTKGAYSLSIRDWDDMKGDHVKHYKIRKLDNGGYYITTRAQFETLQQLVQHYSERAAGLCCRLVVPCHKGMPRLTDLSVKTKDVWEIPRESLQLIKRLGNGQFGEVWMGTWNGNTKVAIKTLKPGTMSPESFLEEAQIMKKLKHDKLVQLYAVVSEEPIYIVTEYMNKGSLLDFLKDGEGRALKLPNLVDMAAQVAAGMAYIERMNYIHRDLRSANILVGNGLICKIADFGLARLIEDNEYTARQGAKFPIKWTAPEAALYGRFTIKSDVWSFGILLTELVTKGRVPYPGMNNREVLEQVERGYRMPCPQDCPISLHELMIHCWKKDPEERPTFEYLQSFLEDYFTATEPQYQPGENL

c-Src = test: as above
Fer (mouse) = test: as above
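Wherever SH2 binding enrichment of the phosphorylated peptide, bacterial display is given: peptide library displayed on the E. coli surface as eCPX fusions, selected cells deep-sequenced, score is each peptide's frequency after selection divided by its frequency in the input.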
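Wherever phosphorylation enrichment, bacterial display is given: 11-residue human phosphosite peptides and single-mutation variants displayed on the E. coli surface, counted by deep sequencing, each peptide's frequency after selection divided by its frequency in the unselected input library; frequency after pTyr selection over input frequency; kinase dosed for 20-30% of maximal phosphorylation in three min.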

Sequence | SH2 binding enrichment (c-Src SH2) | SH2 binding enrichment (SHP2-C SH2) | SH2 binding enrichment (Grb2 SH2) | phosphorylation enrichment (FGFR1) | phosphorylation enrichment (Jak2) | phosphorylation enrichment (EPHB2) | phosphorylation enrichment (c-Abl (mouse)) | phosphorylation enrichment (MERTK) | phosphorylation enrichment (FGFR3) | phosphorylation enrichment (AncSZ) | phosphorylation enrichment (Hck) | phosphorylation enrichment (Fes) | phosphorylation enrichment (EPHB1) | phosphorylation enrichment (Fyn) | phosphorylation enrichment (c-Src) | phosphorylation enrichment (Fer (mouse))
AAPAAHDAADT [GAMT_Y27_Y27H] | 0.478 | 0.8 | 1 | 0.403 | 0.531 | 0.602 | 0.48 | 0.45 | 0.452 | 0.618 | 0.749 | 0.665 | 0.387 | 0.45 | 0.32 | 0.418
AARVSYWLASG [DCHS1_Y1582_R1583W] | 0.527 | 0.733 | 1.17 | 0.622 | 0.825 | 0.732 | 0.617 | 0.443 | 0.781 | 1.18 | 0.555 | 1.17 | 0.613 | 0.573 | 0.364 | 0.634
AAVDTVCRHNF [HLA-DRB1_Y107_Y107V_YF] | 0.529 | 0.479 | 0.888 | 0.499 | 1.15 | 0.577 | 0.937 | 0.488 | 0.533 | 0.765 | 0.429 | 1.29 | 0.521 | 0.398 | 0.491 | 0.54
AAYNRYDQERF [CDC73_Y293] | 0.497 | 0.585 | 0.737 | 0.521 | 0.646 | 0.463 | 0.512 | 0.518 | 0.538 | 0.681 | 0.447 | 0.752 | 0.401 | 0.457 | 0.468 | 0.433
ACRSLYGGFVE [MVD_Y164] | 0.574 | 0.808 | 0.751 | 0.625 | 0.698 | 0.642 | 0.511 | 0.621 | 0.727 | 1.11 | 7.94 | 1.04 | 0.568 | 11.2 | 7.11 | 0.605
ADLLVYIKALN [HPRT1_Y81_D80V] | 0.511 | 0.681 | 0.949 | 0.512 | 1.23 | 0.628 | 0.939 | 0.349 | 0.935 | 1.11 | 0.657 | 1.48 | 0.644 | 0.455 | 0.471 | 0.511
ADNSAYLMGLN [MYH7_Y386_K383N] | 0.556 | 0.723 | 0.993 | 0.512 | 1.11 | 0.566 | 0.738 | 0.473 | 0.61 | 0.865 | 0.603 | 0.932 | 0.629 | 0.514 | 0.587 | 0.497
ADRNHYRRYPR [YBX1_Y145] | 0.403 | 0.299 | 0.748 | 0.527 | 0.585 | 0.425 | 0.717 | 0.48 | 0.465 | 0.613 | 0.55 | 0.644 | 0.424 | 0.544 | 0.515 | 0.46
AEEEIYGEFEA [Src_opt_1995] | 0.483 | 0.69 | 0.774 | 0.694 | 1.29 | 0.75 | 0.97 | 0.58 | 1 | 1.51 | 1.12 | 1.49 | 0.808 | 1.26 | 1.14 | 0.923
AEPHTYEEPGR [EPHA8_Y616] | 6.34 | 0.862 | 0.882 | 0.506 | 0.749 | 0.476 | 0.675 | 0.501 | 0.581 | 1.08 | 0.485 | 0.824 | 0.511 | 0.489 | 0.439 | 0.433
AEPTGYSAELS [EZR_Y499] | 0.457 | 0.525 | 0.721 | 0.528 | 1.08 | 0.583 | 0.799 | 0.485 | 0.636 | 1.03 | 0.616 | 1.01 | 0.513 | 0.524 | 0.488 | 0.535
AERKLYRNVML [ZNF569_Y33_Q29E] | 1.24 | 1.65 | 1.76 | 0.367 | 0.653 | 0.408 | 0.453 | 0.383 | 0.407 | 0.45 | 0.319 | 0.519 | 0.365 | 0.337 | 0.312 | 0.359
AESPEYVHMFT [FAM111A_Y511_YF] | 0.528 | 0.564 | 0.878 | 1.69 | 1.11 | 0.598 | 0.703 | 0.407 | 1.58 | 1.32 | 0.629 | 1.12 | 0.579 | 0.502 | 0.443 | 0.542
AEVDTYCRHNY [HLA-DRB1_Y107_A103E] | 0.699 | 0.838 | 0.939 | 0.461 | 0.682 | 0.559 | 0.554 | 0.391 | 0.559 | 0.771 | 0.505 | 0.98 | 0.428 | 0.394 | 0.537 | 0.442
